Data taken from patent publication US9364516B2, “Treatment of fibrosis-related disorders using fibronectin binding proteins and polypeptides” (priority 2010, dated 2016).

Experiments:
[1] = tested on: left carotid artery; assay: Detection of Texas-Red conjugated peptides in vessel wall; assay type: in vivo, mouse; conditions: Texas-Red conjugate 20 μM in pluronic gel, periadventitial
Description: FIGS. 8A-8E provide visualization of pUR4 in the vessel wall. Texas-Red (TR) conjugated pUR4 (20 μM) was embedded in pluronic gel and periadventitially delivered to the left carotid artery following ligation surgery as described infra. The right carotid artery from the same animal was used as a control. Mice were sacrificed 1, 3, and 7 days after surgery, and the carotid arteries were harvested and flash frozen. Longitudinal sections (20 μm) were immunostained with an anti-TR antibody. Representative images from the right common carotid artery (FIG. 8A), and left common carotid artery of 1 day (FIG. 8B), 3 day (FIG. 8C), and 7 day (FIG. 8D) animals are shown. The percentage area which is TR (+) (FIG. 8E) was assessed in the media of the vessels. Media=M; adventitia=Ad; lumen=L. Bar, 20 μm.
pUR4 and III-11C were conjugated to Texas-Red, as per the manufacturer's instructions (Molecular Probes/Invitrogen). 20 μM Texas-Red (TR) conjugated proteins were embedded in pluronic gel and applied to the vessel following ligation surgery. […] For quantitatively evaluating the efficacy of peptide delivery to the common carotid artery, 15-18 fields of view in the media from 2-3 mice at each time point were analyzed. The TR (+) areas were quantitated using an automated programmed segmentation procedure in ImagePro. The percentage of TR (+) area to the total medial area was determined.

[2] = target: T1, fibrinogen (Homo sapiens, UniProt P02671+P02675+P02679); assay: ELISA binding of pUR4 to ECM proteins: fibrinogen; conditions: plates coated 10 μg/mL, FIG. 7
T1 construct: purchased Enzyme Research Laboratories (South Bend, Ind.)
T1 sequence (P02671 20-629 limits assumed): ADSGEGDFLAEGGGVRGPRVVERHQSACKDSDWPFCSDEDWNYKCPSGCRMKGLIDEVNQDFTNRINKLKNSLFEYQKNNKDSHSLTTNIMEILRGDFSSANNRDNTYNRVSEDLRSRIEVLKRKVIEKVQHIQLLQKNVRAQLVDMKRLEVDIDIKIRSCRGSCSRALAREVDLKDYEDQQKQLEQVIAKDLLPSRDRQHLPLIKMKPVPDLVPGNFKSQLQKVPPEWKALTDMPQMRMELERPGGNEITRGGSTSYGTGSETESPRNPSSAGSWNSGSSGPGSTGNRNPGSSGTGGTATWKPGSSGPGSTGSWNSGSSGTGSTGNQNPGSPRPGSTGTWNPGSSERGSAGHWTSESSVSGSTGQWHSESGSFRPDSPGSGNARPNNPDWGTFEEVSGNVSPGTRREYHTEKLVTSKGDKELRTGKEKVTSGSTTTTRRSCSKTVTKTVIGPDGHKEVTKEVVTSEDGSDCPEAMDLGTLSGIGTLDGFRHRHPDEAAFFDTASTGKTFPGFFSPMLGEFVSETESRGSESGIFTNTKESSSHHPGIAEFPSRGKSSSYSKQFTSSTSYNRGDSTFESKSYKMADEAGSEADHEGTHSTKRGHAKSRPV
T1 sequence (P02675 31-491): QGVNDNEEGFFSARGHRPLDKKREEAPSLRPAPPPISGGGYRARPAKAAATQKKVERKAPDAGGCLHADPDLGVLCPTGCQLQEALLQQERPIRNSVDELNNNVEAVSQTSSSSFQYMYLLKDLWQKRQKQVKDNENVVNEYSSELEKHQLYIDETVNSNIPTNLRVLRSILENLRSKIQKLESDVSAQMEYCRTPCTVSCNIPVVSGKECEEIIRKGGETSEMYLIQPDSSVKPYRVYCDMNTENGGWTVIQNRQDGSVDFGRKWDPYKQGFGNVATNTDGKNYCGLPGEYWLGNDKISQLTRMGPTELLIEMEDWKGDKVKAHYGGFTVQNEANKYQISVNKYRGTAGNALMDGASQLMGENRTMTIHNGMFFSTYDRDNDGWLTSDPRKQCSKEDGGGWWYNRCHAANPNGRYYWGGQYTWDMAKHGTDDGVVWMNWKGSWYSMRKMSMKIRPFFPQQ
T1 sequence (P02679 27-453): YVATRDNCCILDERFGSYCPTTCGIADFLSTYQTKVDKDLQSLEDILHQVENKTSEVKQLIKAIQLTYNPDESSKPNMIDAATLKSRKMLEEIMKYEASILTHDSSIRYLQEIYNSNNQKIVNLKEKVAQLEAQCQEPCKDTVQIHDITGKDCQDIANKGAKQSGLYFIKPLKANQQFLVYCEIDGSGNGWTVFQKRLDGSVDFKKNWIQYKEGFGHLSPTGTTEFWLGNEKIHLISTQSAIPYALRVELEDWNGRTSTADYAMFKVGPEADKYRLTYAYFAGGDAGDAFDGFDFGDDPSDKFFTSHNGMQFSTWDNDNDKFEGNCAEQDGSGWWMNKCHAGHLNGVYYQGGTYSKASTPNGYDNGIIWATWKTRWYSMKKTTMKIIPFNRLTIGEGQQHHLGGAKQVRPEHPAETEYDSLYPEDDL
Description: FIG. 7 is a graph depicting the binding of pUR4 to ECM Proteins. 96-well plates were coated with 10 μg/mL type I collagen (COL), denatured type I collagen (dCOL), fibronectin (FN), laminin (LN), vitronectin (VN), or fibrinogen (FG) at 4° C. overnight. pUR4 was added to the wells and serially diluted. Bound pUR4 was detected as described herein. Measurements were done at 405 nm on a Wallac 1420 multilabel counter. Data represents the average of duplicate determinations, and the error bars the range.
96-well tissue culture plates were coated with 10 μg/mL type I collagen, fibronectin, laminin, fibrinogen, or vitronectin overnight at 4° C. Denatured collagens were generated as described (George et al., “Fibronectins are Essential for Heart and Blood Vessel Morphogenesis but are Dispensable for Initial Specification of Precursor Cells,” Blood 90:3073-3081 (1997), which is hereby incorporated by reference in its entirety). Plates were blocked with 1% bovine serum albumin (BSA) in Tris buffered saline (TBS) for 1 hour, then washed with TBS. pUR4 was serially diluted into coated wells, then incubated at room temperature for 90 min. Wells were washed with TBS containing 0.1% Tween 20. […] After washing, peroxidase activity was quantified by using 2,2′-azino-bis-(3-ethylbenthiazoline-[…]). […]

B1: pUR4: 49-mer peptide derived from the bacterial F1 adhesin, His tagged, SEQ ID NO:1; class I fibronectin polymerization inhibitor (peptide)
chain: MRGSHHHHHHGSKDQSPLAGESGETEYITEVYGNQQNPVDIDKKLPNETGFSGNMVETEDTKLN
modifications: His tag; Bacterial adhesin derived peptide pUR4
- peptide detected in the vessel wall (media and adventitia) ([1]; 1 to 3 days after application): readily detected
- levels of the peptide in the vessel wall by day 7 ([1]; day 7): significantly reduced
- binding to fibrinogen [2]: does not bind
